In paper PMC3120127 one finds fold luciferase signal over N-FLUC-PFE1350c plus the C-FLUC negative control and fold luciferase signal over the N-FLUC fusion plus the C-FLUC negative control data, which are given here for three substances.

What all share (test): split reporter
Test [1] addresses N-FLUC-PFE1350c (amino acids 9-135) (P. falciparum).
The target in test [2] is N-FLUC-PfMyb2 fragment #13 (P. falciparum).
Test [3] has as its target N-FLUC negative control (firefly).

With “PFC0365w-C-FLUC (amino acids 45-205) (domain or fragment)”, the fold luciferase signal over N-FLUC-PFE1350c plus the C-FLUC negative control in test [1] is below 2.3 fold. The fold luciferase signal over the N-FLUC fusion plus the C-FLUC negative control in test [2] stood at 36 fold.
As for “PFL1705w-C-FLUC (amino acids 95-213) (domain or fragment)”, in test [1], the fold luciferase signal over N-FLUC-PFE1350c plus the C-FLUC negative control is below 2.3 fold.
In the case of “PFC0255c-C-FLUC (amino acids 4-137) (domain or fragment)”, the fold luciferase signal over the N-FLUC fusion plus the C-FLUC negative control in test [1] is above 600 fold. Moreover, in test [3], the fold luciferase signal over N-FLUC-PFE1350c plus the C-FLUC negative control was below 2.3 fold.
